Test: label from the status in PepcDB records

Sequence: MTPEIAIGLVTALGLGALVGLERQWRQRSSGMATHAMVALGAASFSILPLLLDNEVSVTRMAAQVVSGIGFLGAGVIMRDGLSVRGLSTAASIWSTGAIGVLAGSGFILAACMTTALIVIANLFLPALGRVVDRHTSGEAEQERFYQISVSCEARNEALVRMQLLQRMGDNRLNLQSLESHALKGSGNVEVNAVVFTLHKEDSLVEQMVGELCLAPQVTAASWVMNPAAE
- protein production: failed

Sequence: MTLNAKGESNQILVDKEVHSTNLLLDIDEKPELFQGLLLSFQHVFAMFGATILVPLILGMPVSVALFASGCGTLIYQVATKFKVPVYLGSSFAYITAMALAMKQMHGDISAAQTGILFVGLIYVVVATVIKFVGNSWVDKILPPIIIGPMIIVIGLGLANSAVTNAGFVAKGDWRKMLVAVVTFLIAAFINTKGKGFIKIIPFLFAIIGGYILSIILGLVDLSPVEKAAWFELPKFYLPFKTGLFHSYKLYFGPEMLAILPISIVTIAENIGDHTVLGQICGRNFLKKPGLNRLLIGDGLATAFSALIGGPAETTYGENTGVIGMTRIASVTVIRNAAFIAIAFSFFGKFTALISTIPSAVLGGMAILLYGVIASNGLKVLIENRVNFAEVRNLIIASSMLVLGLGGAVLDLGALTLSGTALSAIVGIILNLILPKESMKS
- protein production: not failed

Sequence: MTSLPQISTLMREKSVENKLKVKAKDDHMVPSGLYEVRAIQLPGGSWRHYYVDHSSKETYWILPYSHPDGASSHPLEKLPVYLPSYEECVDETNPLAVPEVCSPARD
- protein production: not failed

Sequence: MSIPFSNTHYRIPQGFGNLLEGLTREILREQPDNIPAFAAAYFESLLEKREKTNFDPAEWGSKVEDRFYNNHAFEEQEPPEKSDPKQEESQISGKEEETSVTILDSSEEDKEKEEVAAVKIQAAFRGHIAREEAKKMKTNSLQNEEKEENK
- protein production: failed

Sequence: MTVAVIGAHGGIGRRLLPRLNEAGHDPIGVVRSEDQFAAIRDRGAEPRLGDLEGEVASALDGADAVVFTAGAGGSTGWDKTILVDLWGAERAVHACEEKEIDRFVMVSSRGAGDPESRQGPIKPYIVAKHVADRTLQRSSLDETILRPTRLTDAEGTGRVAAYVDTDPDAGDPIPRADVAQAVVQCLADDNTVGHAITLYGGDTPIGEALRPSGLEHHHHHH
- protein production: failed

Sequence: MKAKPLSQDPGSKRYAYRINKEENRKELKHVKINESSLVQEGQKIDLPKKRYYRQRAHSNPFSDHQLEYPVSPQDMDWSKLYPYYKNAENGQMTKKVTIADIGCGFGGLMIDLSPAFPEDLILGMEIRVQVTNYVEDRIIALRNNTASKHGFQNINVLRGNAMKFLPNFFEKGQLSKMFFCFPDPHFKQRKHKARIITNTLLSEYAYVLKEGGVVYTITDVKDLHEWMVKHLEEHPLFERLSKEWEENDECVKIMRNATEEGKKVERKKGDKFVACFTRLPTPAIL
- protein production: failed

Sequence: MRNIYSIYKEHYKALISLGLPIVIGQIGVIVLGFADTLMIGHHSTIELGAASFVNNVFNLVIIFSTGFSYGLTPIVGGLYGTHQYASAGQALRNSLLANLLVAFLLTIGMTVLYFNVGNLGQPEELIPLIKPYYLVLLASLVFVMLFNGFKQFTDGITDTKTAMWILLGGNVLNIIGNYILIYGKLGLPEMGLLGAGISTLFSRIMMVVVFIIVFMRSPRFLRFKLGFYRLGWSKAIFGRLNSLGWPIAFQMGMETASFSLSAVMIGWLGTIALASHQVMLAISQFTFMMYYGMGAAVAVRVSNFNGQGDILNVRRSAYAGFHLMMALGVVLSSIVFLCRNYLGGWFTDSTEVAAMVTSLILPFLVYQFGDGLQITFANALRGISDVKLMMLIAFIAYFLISLPVGYFCGFVLEWGIIGVWMAFPFGLTSAGLMLWWRFHHKTKLPPSIQNS
- protein production: not failed

Sequence: MKPPADNNKEGAESHKLESESKPIWKSMSMFLVPLLLSNVLQSVGQLFGMVVVGRWLGVNDLAAISAFFPLFFLLVSFVIGIGSGSSILIGQAFGAKNEDRLKAIVGTTLTFTFIIGVLLAIIGSIFAMDIMRLMGTPENIIEISVHYARILFISMPVLFLYFAYTTFMRGTGDSKTPFYFLIVSTALNMILLPILIFGWLGAPKLDVYGAAYASVISTVITFIVMLVYLKKKNHPLQLDGTVRKYLRMDGELLKLLLRLGIPASINMILVSLSEIAVIAFVNRYGSDATAAYGVVNQVASYVQMPAVSLGITVSIFAAQSIGANQFDRLQKVVKAGIIMNYVIGGVLISLIYVFSRDILSLFLTSQTTIEIAHSLVMITLWSYLIFGHAQIISATMRASGTVLWPTVIGVVSIWLVEVPVAYYLSYHTSLGIEGIWIGYPAAFIVSLILQYAYYKLSWQKKRITRLVS
- protein production: not failed

Sequence: MSHALRAVFLDHASLDLGDLDMRPLRAAFDELQLHAASQPQEVAARLHDARVAISNKVPIDAQCIAACPELELILISATGTNNIDLAAARERGIVVANCHGYGTPSVAQHTLALLLALATRLPDYQQAVRSGRWQQSSQFCLLDFPIVELEGKTLGLLGHGELGGAVARLAEAFGMRVLLGQLPGRPARADRLPLGELLPRVDALTLHCPLTEDTRGMLGSAELALMKPGAFLVNTARGGLVDEQALADALRGGHLGGAATDVLSVEPPRNGNPLLAPDIPRLIVTPHNAWGSREARQRIVGQLAENAEAWKAGR
- protein production: failed

Sequence: MSVLGFDIGNLNCYIGVARQGGIEVITNDYSLHATPACVSFGPKDRSMGVAARQAVTTNIKNTVINFKHLIGRKFSDPVAQRFIPFIPCKVVKLPNDDIGVQVSYLGEPHTFTPEQVLAALLTKLRTIVESQLSDVKKVSDCVLAVPSYFTDVQRRAVLSAIQYAGLNSLRIVNETTAIALAYGIYKQDLPEEDAKSRNVVFLDIGHSSTQASLVAFNRGKLQMVNTSYDLESGGIWFDALIREHFRKEFKTKYGIDAATSPRPWLRLLDECERVKKQMSANQTPIPLNIECFMEDKDVTGKMQRQEFEDLAAPIFNRIKQVLINLFADGVSIKPEEIDEIEIVGGSSRIPMIREIVKDLFGKEPKTTMNQDEAVARGAAMQCAILSPTFRVREFAIKDTQPYRIRLSWNSTGENGGENDVFSPRDEVPFSKLVSLLRSGPFNVEAHYAQPNVVPHNQVHIGSWKVNGARPGADGGNQKVKVKVRVNPDGIFTIASATMYEPRIVEEVPAEAMEVDGDAKTEAPAEPL
- protein production: failed

Sequence: MHEWGLSEELKIQTKQMIEIAEKELSIMRNAIDKEDECILCKMEDIHHMLANVQTLAATYYIQAYLSPYTESSSFITTAIQHLSARKHGALIVVERNETLEALIQTGTTLNAHLTAPLLESIFYPGNPLHDGAVLVKNNHIVSAANILPLTKSTEVDPELGTRHRAAIGLSEKSDALILVVSEETGRTSFALNGILYTISL
- protein production: not failed

Sequence: MGSSHHHHHHSSGLVIRGSHMRIALMQHTARPLDPQHNLDLIDDAAARASEQGAQLLLTPELFGFGYVPSQICAQVSAEQVDAARSRLRGIARDRGIALVWSLPGPEGPEQRGITAELADEHGEVLASYQKVQLYGPEEKAAFVPGEQPPPVLSWGGRQLSLLVCYDVEFPEMVRAAAARGAQLVLVPTALAGDETSVPGILLPARAVENGITLAYANHCGPEGGLVFDGGSVVVGPAGQPLGELGVEPGLLVVDLPDQSQDAGSDSADYLQDRRAELHRNWL
- protein production: not failed

Sequence: MNPPDISVLIVSFNTRDLLRRCLASLRDQAGGTGIETIVVDNASRDGSADMVEAEFPDVRLIRSPVNLGFGNANNLAFTQSRGRYLVLLNSDACLAPGLLDAASKRMDACPDVGMAGGRLVGPEGGWQPSARMFPSLLNEFLVLSGLAHRYPKSRLFGRFDRTWADPSEEAGVDWVPGAFAILRRDLIDRIGFFDPRFFLYYEEVDLCRRIRAAGCKIMYWPELVITHLGGESAKTLSDMEFSSHASQLTLWRMRSQALYYRKWHGLALAWSAKTLEQLWHWLRALRHRRSAPAKAHDSEALIRLWNRAWKETEGGRVSPPQPWLEHHHHHH
- protein production: failed

Sequence: MKKMAAAESMEAEICINREIPPGLFPAVKGTDDLMAEGDIMSLLESIKKTEGGSGEVSVEDKMDEIFAKLEKSQVLLIQGDTGCGKTTKIPKYLLRKYGKIVCSQPRRIAAVSIAKKVAVDMKGKIGEDVGYSIRFDDMSSGRTRLKYVTDGVLLREIKNDKHLKKYDVVIIDEAHERSVNIDILLGYLKSILSERKDLRVVIMSATLNSEKFASFFRCQTVEIRHRMFPLEIFFLKKSDVADYVDEAMKTVVQIHRGEESGDILVFLTGRDEINSGREILMEVLGNDAEVCCIYSTLSPEEQEAVFRKTKKRKIVLATNIAETSITIEGVRYVVDSGRAKQMRYSASFGMDILEVVWISKAQAKQRAGRAGRTQAGKVFRMYSKEEYQKMDDNTTPEIFCCNLGKIVLELKSIGVDDIVNFNLIDKPDASNVKKALEMLYYLRAIGGDGKITSIGVKASTIPLDPELAVSLIVSSELGCLEDVSIIAAMLSVGNVWLDVPRYSQSYKAFLGARAAHFDKRGDHFLLLKIYRRWEKTGFKISHLKRWFLNVKTMLQTVKIKKQLCSMFRSPCKSDESGILPSLCAGYFMNVAKLVGESYVSIFNDTPCFIHYTSCMSRQNAKYILYHTLCRTGKEYARYCVGVTLEDLLKGANHMFAKVRKTEK
- protein production: failed

Sequence: MIYFIRKKKWLKQLEKGEAMKYAILIGDGMADYPIEKLGNRTILQAARTPAMDSIAARGRAGLAKTVPDSFPPGSDVANMSILGYDPATYYSGRAPLEAASMGVALAADDVAFRCNLITTEHGMIKDYSAGHISSDEAEILIDTLDYELSTENIRFYPGISYRHLIVAGNNLGAETECTPPHDITGEKIDKYLPRGKDGEFFSELIEASKVVLELHPVNLKRVEEGKNPANSIWVWGQGYAPKFTAFMKLYGKKGAVISAVDLLKGIGIYAGLDVIEVHGATGYLDTNYEGKVRAAIEALKTRDLVFVHVEAPDEAGHEGSIEKKLKAVEDFDSRIVAPILEYAENSDEPFTILVLPDHPTPISVKTHTRDPIPFAIYRTDKPETDNVEAFDEESVKNGSMGLVKASDLIGILIKS
- protein production: failed

Sequence: MNNKFKDFFGFGDNDSYEERDAYEEHYDEQEEMQNSNRPTNSRDSNVVSIKAGQAGSGPSKIVLYEPRVYSDAKEVAQNLLNQRAIIINFSRMDDASARRVVDFITGTVYALNGEIQRIGDKIFLATPPKFETDGKITELLDKKDTLG
- protein production: failed

Sequence: MVADAAAAGSGGVGVCARWPRASAEGARMKLTPRVHDWYVGRVVLSTVLLTWAVLLGLDLVNAFASEAKDIGQGSYTFGHAVAYVAYTVPRRAYTLFPTAAVIGALMGLGQLAATSELTALRALGVSRKRMSASVVAAMALLTASMVISGETIGPWAQNQADTLKASARYNSDMAASLYAGLWAREGDTFLNALSGEEKLLDGGDTALDLHDVRLYHLDSSGRMQQLTYASVAEHRDGRWTLRQVRRDTFQERSVQRETFPELPWQSQLNPAALAAGLAKPRNLSAHDLEQSIEYRSRNGLDARDYEDQYWSRWFYPLNVLALCMAAIPFSFGSLRSGGLGKRLFLGILFALGFWLLQLFFGRMAGALKLDYRIAYALPPMVMLGVSAWLFRRRSS
- protein production: failed

Sequence: MPKERVDVLAYKQGLFNTREQAKRGVMAGLVVNVINGERYDKPGEKIDEATELKLKGDKLKYVSRGGLKLEKALKVFVISVDGQITLDIGASTGGFTDVMLQNGAQLVYAVDVGTNQLVWKLRQDERVCSMEQYNFRYAEPSDFERGQPTFASIDVSFISLNLILPALSKILTDGGQVVALIKPQFEAGREQIGKHGIVKDKSVHETVLETVTTFATNYGFTVKELDFSPIQGGHGNIEFLAYLEKSAQAQNQVLTKIKSIVEQAHKEFKKNEET
- protein production: not failed

Sequence: MDKIGMTNQITGVISKFDTNIRTIVLNAKDGIFTCNLMIFVKNTDKLTTLMDKLRKVQGLEHHHHHH
- protein production: failed

Sequence: MRSIAMQAADLYVLQTAQSWLDAGQAAVLLTVARTWGSSPRPPGAMMAIRADGAVAGSVSGGCIEDDLIDQIRQRGIAALCPGARPALATYGVDGEQARRFGLPCGGTLQLVLEPLGAHSRLADLLARLRAHQTVRRSVRLADGAVTLEPAAADAEPRLDGAGFASVLGPRHRLLVVGAGQLSRYLCEMAIALDFDVTVSDPRQEYRAGWQVEGVALTTAMPDDMVIAARPDARTAVIALTHDPKLDDLALIDALQTPAFYVGALGSRANHARRVARLREHFGLTPAQLARLRGPAGIYIGSRTPPEIALSIMAEIVAGKNGAPLPPAASVAAGKARQPGGAGVIQAGLCATL
- protein production: failed
